Assay results: patent US20250270320A1 (EUTILEX, published 2025)
Substitutions are numbered along the chain they refer to.

B1: 2-7C5 hybridoma antibody (antibody, V domains shown)
VH: EVQLVESGGGLVQPVGSLKLSCAASGFTFSSFGMSWVRQTPDKRLELVATIYSNGDYTYYPDSVKGRFTVSRDNAKNTLYLQMSSLKSEDTAMYYCARYYGNYGGYFDYWGQGTTLTVSS
VL: SIVMTQTPKFLLVSAGDRVTITCKASQSVSNDVAWYQQKPGQSPKLLIYYASNRYTGAPDRFTGSGYGTDFTFTISTVQAEDLAVYFCQQDYSSPPTFGGGTKLEIK
notes: Mouse hybridoma antibody
B2: 4-8D4 hybridoma antibody (antibody, V domains shown)
VH: QVQLQQSGAELAKPGASVKMSCKASGYTFTTYWIHWVKQRPGQGLEWIGYINPTTGYTEYNQKFKDKATLTADKSSNTAYMQLSSLTSEDSAVYYCARGVRYYFDYWGKGTTLTVSS
VL: DIVMSQSPSSLAVSAGEKVTMSCKSSQSLLDSRTRKNYLAWYQQKPGQSPKLLIYWASTRESGVPDRFTGSGSGTDFTLTISSVKAEDLAVYLCKQSYNLITFGAGTKLELK
notes: Mouse hybridoma antibody
B3: humanized antibody 2B3W (antibody, V domains shown)
VH: EVQLVESGGGLVQPGGSLRLSCAASGFVFSNYDMSWVRQAPGKGLEWVAYITIGGGTTYYPDTVKGRFTISRDNAKNSLYLQMNSLRAEDTAVYYCARWVYDPLYAMDYWGQGTTVTVSS
VL: DIVLTQTPLSLSVTPGQPASISCRASESVDNYGISFMNWFLQKPGQPPQLLIYAASNQGSGVPDRFSGSGSGTDFTLKISRVEAEDVGVYYCQQSKEVPWTFGQGTKVEIK
notes: Humanized antibody made in Expi293 cells
B4: humanized antibody 7C5 (antibody, V domains shown)
VH: EVQLVESGGGLVKPGGSLRLSCAASGFTFSSFGMSWVRQAPGKGLELVATIYSNGDYTYYPDSVKGRFTVSRDNAKNSLYLQMNSLRAEDTAVYYCARYYGNYGGYFDYWGQGTLVTVSS
VL: AIQMTQSPSSLSASVGDRVTITCKASQSVSNDVAWYQQKPGKAPKLLIYYASNRYTGVPSRFSGSGSGTDFTLTISSLQPEDFATYYCQQDYSSPPTFGGGTKVEIK
notes: Humanized antibody
B5: humanized antibody 8D4 (antibody, V domains shown)
VH: QVQLVQSGAEVKKPGASVKVSCKASGYTFTTYWIHWVRQAPGQGLEWIGYINPTTGYTEYNQKFKDRATLTADKSTSTAYMELSSLRSEDTAVYYCARGVRYYFDYWGKGTTVTVSS
VL: DIVMTQSPDSLAVSLGERATINCKSSQSLLDSRTRKNYLAWYQQKPGQPPKLLIYWASTRESGVPDRFSGSGSGTDFTLTISSLQAEDVAVYYCKQSYNLITFGQGTKLEIK
notes: Humanized antibody
B6: T14-04 (antibody, V domains shown)
VH: B3 VH with V100R, Y105F
VL: B3 VL
B7: T15-03 (antibody, V domains shown)
VH: B4 VH
VL: B4 VL with S52Y, N53M, Q89H
B8: 8D4-T16-02 (antibody, V domains shown)
VH: B5 VH
VL: DIVMTQSPDSLAVSLGERATINCKSSQSLLDSRTRKNYLAWYQQKPGQPPKLLIYWASTRESGVPDRFSGSGSGTDFTLTISSLQAEDVAVYYCQQQYDPPITFGQGTKLEIK
notes: Engineered clone of humanized 8D4; also called T1-02
B9: T14-01 (antibody, V domains shown)
VH: B3 VH
VL: B3 VL with D30T, N31D
B10: T14-02 (antibody, V domains shown)
VH: B3 VH
VL: B3 VL with K96E
B11: T14-03 (antibody, V domains shown)
VH: B3 VH
VL: B3 VL with D30T, N31D, K96E
B12: T15-04 (antibody, V domains shown)
VH: B4 VH
VL: B4 VL with S52Y, N53M
B13: T15-02 (antibody, V domains shown)
VH: B4 VH
VL: B4 VL with Y92F, S93W, S94Y
B14: T15-05 (antibody, V domains shown)
VH: B4 VH with S53H, N54S, G55R
VL: B4 VL

Each binder was assayed against T1, recombinant human PD-1-His protein (ECD) (human, UniProt Q15116 25-170) (assay: SPR, purified hybridoma antibody, recombinant human PD-1-His (ECD)).
T1 construct: extracellular domain; Used as ELISA coat and SPR partner; also called rhprotein; antigen; not shown: His tag
T1 sequence (Q15116 25-170): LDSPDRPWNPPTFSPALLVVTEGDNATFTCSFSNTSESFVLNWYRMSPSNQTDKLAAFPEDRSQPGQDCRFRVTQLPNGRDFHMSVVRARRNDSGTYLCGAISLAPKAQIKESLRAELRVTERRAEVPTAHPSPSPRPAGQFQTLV
Work on B1 yielded a Kd of 17.1 nM, a koff of 0.00127 s⁻¹ and a kon of 74200 M⁻¹ s⁻¹.
For B2, the Kd was 15.9 nM, the koff was 0.00106 s⁻¹ and the kon was 66700 M⁻¹ s⁻¹.

These binders were tested against T2, human PD-1 expressed on cells (human, UniProt Q15116 25-288) (assay: cell-based or functional assay).
T2 sequence (Q15116 25-288): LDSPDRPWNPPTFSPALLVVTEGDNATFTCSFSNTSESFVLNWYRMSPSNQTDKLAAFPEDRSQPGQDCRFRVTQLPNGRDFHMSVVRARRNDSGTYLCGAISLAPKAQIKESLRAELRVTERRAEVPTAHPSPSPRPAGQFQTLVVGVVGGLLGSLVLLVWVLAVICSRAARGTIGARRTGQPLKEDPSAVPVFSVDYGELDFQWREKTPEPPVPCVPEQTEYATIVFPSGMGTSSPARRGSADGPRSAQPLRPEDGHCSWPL
B1 was tested, and the “IC50 (read off the curve); PD-1/PD-L1 blocking reporter assay, fold induction” value was roughly 3 µg/mL.
With B2 the “IC50 (read off the curve); PD-1/PD-L1 blocking reporter assay, fold induction” value was roughly 3 µg/mL.

Each binder was assayed against T1, recombinant human PD-1-His protein (ECD) (assay: SPR, purified antibody, PD-1 antigen).
In the case of B3, the Kd is reported as 13.4 nM, the koff is reported as 0.00271 s⁻¹ and the kon is reported as 203000 M⁻¹ s⁻¹.
B4 showed a Kd of 57.2 nM, a koff of 0.00492 s⁻¹ and a kon of 86000 M⁻¹ s⁻¹.
B5 showed a Kd of 29.6 nM, a koff of 0.00176 s⁻¹ and a kon of 59400 M⁻¹ s⁻¹.

Target: T2, human PD-1 expressed on cells
Test: cell-based or functional assay
Remark: another data set of the same source
In the case of B6, the “EC50 (read off the curve); PD-1/PD-L1 Blockade Bioassay, luciferase RAU” value is reported as roughly 0.8 µg/mL.
In the case of B7, the “EC50 (read off the curve); PD-1/PD-L1 Blockade Bioassay, luciferase RAU” value is reported as roughly 1 µg/mL.

What follows are binders tested against T1, recombinant human PD-1-His protein (ECD) (assay: SPR; number in the sensorgram panel without name or unit, taken as KD in M because 8.999e-9 stands for 9 nM in FIG 9d).
Binder B5 has a Kd of 18.5 nM.
With B8 the Kd was 1800 nM.

What follows are binders tested against T2, human PD-1 expressed on cells (assay: flow cytometry on hPD-1/293 cells, 2nd-hIgG-PE detection; Ctl 2nd-hIgG 0.17, cell only 0.03).
Description: In addition, each purified humanized antibody was bound to 293 cells expressing human PD-1 and analyzed by flow cytometry.
For B3, the “percent of cells in the positive quadrant” value (“percent of cells” below) was 94.7%.
With B4 the “percent of cells” value was 95.3%.
For B5, the “percent of cells” value was 96.1%.

The binders below were run against T2, human PD-1 expressed on cells (assay: flow cytometry on activated hCD8 T cells from human blood, 2nd-hIgG-PE detection; 2nd-hIgG-PE alone 1.73).
In the case of B3, the “percent of cells” value is reported as 9.77%.
In the case of B9, the “percent of cells” value is reported as 17.4%.
In the case of B10, the “percent of cells” value is reported as 11.8%.
With B11 the “percent of cells” value was 9.55%.
For B6, the “percent of cells” value was 17.1%.
B4 was tested, and the “percent of cells” value was 6.39%.
In the case of B12, the “percent of cells” value is reported as 12.4%.
With B13 the “percent of cells” value was 19.3%.
For B14, the “percent of cells” value was 16.1%.
B7 was tested, and the “percent of cells” value was 10.7%.

What follows are binders tested against T1, recombinant human PD-1-His protein (ECD) (assay: SPR; number in the sensorgram panel without name or unit, taken as KD in M because 9.655e-9 stands for 9.7 nM in FIG 9d).
B4 gave a Kd of 211 nM.

The binders below were run against T1, recombinant human PD-1-His protein (ECD) (assay: Q-ELISA of purified antibody on recombinant human PD-1-His, drawn table).
Protocol: For ELISA, the recombinant human PD-1-His protein was O/N coated on a 96-well ELISA plate at 4° C., and blocked with 5% non-fat skim milk at RT for 1 hr. […]
B3 was tested, and the “OD=405, row 1 of 8 (1/2 serial dilution from 500ng)” value was 3.17, the “OD=405, row 2 of 8 (1/2 serial dilution from 500ng)” value was 3.15 and the “OD=405, row 3 of 8 (1/2 serial dilution from 500ng)” value was 3.2. The “OD=405, row 4 of 8 (1/2 serial dilution from 500ng)” value was 3.13, the “OD=405, row 5 of 8 (1/2 serial dilution from 500ng)” value was 2.92 and the “OD=405, row 6 of 8 (1/2 serial dilution from 500ng)” value was 2.45. For the same binder, the “OD=405, row 7 of 8 (1/2 serial dilution from 500ng)” value was 1.7 and the “OD=405, row 8 of 8 (1/2 serial dilution from 500ng)” value was 1.09.
B4 was tested, and the “OD=405, row 1 of 8 (1/2 serial dilution from 500ng)” value was 3.42, the “OD=405, row 2 of 8 (1/2 serial dilution from 500ng)” value was 3.39 and the “OD=405, row 3 of 8 (1/2 serial dilution from 500ng)” value was 3.42. For the same binder, the “OD=405, row 4 of 8 (1/2 serial dilution from 500ng)” value was 3.34, the “OD=405, row 5 of 8 (1/2 serial dilution from 500ng)” value was 3.22 and the “OD=405, row 6 of 8 (1/2 serial dilution from 500ng)” value was 2.74. For the same binder, the “OD=405, row 7 of 8 (1/2 serial dilution from 500ng)” value was 1.96 and the “OD=405, row 8 of 8 (1/2 serial dilution from 500ng)” value was 1.16.
B5 was tested, and the “OD=405, row 1 of 8 (1/2 serial dilution from 500ng)” value was 3.35, the “OD=405, row 2 of 8 (1/2 serial dilution from 500ng)” value was 3.31 and the “OD=405, row 3 of 8 (1/2 serial dilution from 500ng)” value was 3.33. For the same binder, the “OD=405, row 4 of 8 (1/2 serial dilution from 500ng)” value was 3.26, the “OD=405, row 5 of 8 (1/2 serial dilution from 500ng)” value was 2.95 and the “OD=405, row 6 of 8 (1/2 serial dilution from 500ng)” value was 2.41. The “OD=405, row 7 of 8 (1/2 serial dilution from 500ng)” value was 1.61 and the “OD=405, row 8 of 8 (1/2 serial dilution from 500ng)” value was 0.975.

The binders below were run against T1, recombinant human PD-1-His protein (ECD) (assay: SPR; number in the sensorgram panel without name or unit, taken as KD in M because 5.789e-9 stands for 5.8 nM in FIG 9d).
B3 gave a Kd of 428 nM.

What follows are binders tested against T2, human PD-1 expressed on cells (assay: flow cytometry on cells overexpressing hPD-1).
B3 was tested, and the “percent of cells” value was 95.6%.
In the case of B9, the “percent of cells” value is reported as 96.8%.
B10 was tested, and the “percent of cells” value was 96%.
With B11 the “percent of cells” value was 90.9%.
In the case of B6, the “percent of cells” value is reported as 95%.
With B4 the “percent of cells” value was 96.4%.
In the case of B12, the “percent of cells” value is reported as 96.6%.
B13 was tested, and the “percent of cells” value was 96.9%.
For B14, the “percent of cells” value was 97.5%.
B7 was tested, and the “percent of cells” value was 96.7%.
With B5 the “percent of cells” value was 96.2%.
B8 was tested, and the “percent of cells” value was 95.5%.
